Where no end group is shown, it is not given here.
Experiments:
human Factor VIII [1] = target: T1, human Factor VIII (Homo sapiens, UniProt P00451); test: Secondary chromatography binding assay (ELISA quantitation of column fractions); details: rhFVIII load 10 μg on peptide-resin column; for Elute Total μg: FVIII by ELISA in elution (Buffer C) fraction; for Flow-Through Total μg: FVIII by ELISA in flow-through fraction; for Salt Wash Total μg: FVIII by ELISA in salt wash (Buffer B) fraction
T1 construct: (the applicant)
Experimental: The secondary chromatography binding assays were performed upon a Michrom Bioresources HPLC (Auburn, Calif.). This binary system has the added advantage of a second injection loop which was outfitted with a 5 ml loop. This allowed addition of a third solvent during the HPLC run. Buffer A was 20 mM Imidazole, pH=7.0, 10 mM CaCl2, 300 mM NaCl, 0.01% Tween 80. Buffer B is the same as buffer A but with 1M NaCl and 1M CaCl2. Elution buffer (Buffer C) is the same as buffer A but with 40% ethylene glycol monomer and 250 mM CaCl2. Absorbance was monitored at 280 nm.
Confirmatory FVIII binding assays were performed in a column chromatographic format on the HPLC described above. Batch synthesized peptide-resin (substitution at 100 μmoles/g) was loaded and washed as described in Buettner, J., 1996, supra. The HPLC method injected the sample onto the column at 80 cm/hr linear velocity, allowed for flow-through of unbound protein, then stepped to 200 cm/hr for the wash with Buffer B (as described above), and then the bound protein eluted with Buffer C (as described above). FIGS. 1, 2 and 3 show the results from contacting a known amount of human Factor VIII to each of the preferred peptide-resins (sequence ID 1, 2 and 3, respectively).
Recombinant FVIII was applied to each column as described above. […] ELISA quantitation utilized a polyclonal antisera as capture antibody adsorbed onto the plate well, application of each fraction allowed the Factor VIII to adhere to the capture antibody. The making and using of polyclonal and monoclonal antibodies is well-know, and within the skill of one of ordinary skill in the art. See generally Antibodies, A Lab Manual, Harlow and Lane, eds., 1988, Cold Spring Harbor. Then a panel of 3 monoclonal antibodies were used to identify the Factor VIII and detection of these antibodies with a secondary-antibody enzyme conjugate allowed accurate quantitation of the Factor VIII. The flow-through fractions from each injection show greater than 96% target protein depletion by these peptide ligands. […] The binding avidity was weak enough to permit recovery of target protein during the elution phase of the chromatography.

human Factor VIII [2] = target: T1, human Factor VIII; test: Preparative hrFVIII purification by peptide resins, fractions assayed for Factor VIII activity (Coatest VIII:C/4); details: load KG2DEAE 136 IU; for Elute Total IU / Flow-Through Total IU / Salt Wash Total IU: Coatest
Experimental: Preparative batch synthesis of the preferred sequences was performed using 10 g TSK resin (Toyopearl AF-Amino-650M, TosoHaas, Inc., Montgomeryville, Pa.) as described in Buettner, J., 1996, supra. […] Three injections of an in-process sample of human Factor VIII were contacted with each resin and fractions of flow-through, salt wash and elution were tested for biological activity, protein profile by SDS-PAGE, and target protein identification by Western blot analyses, as described in Buettner, J., 1996, supra. Biological activity was defined as the ability of the column fraction to reconstitute Factor VIII-depleted plasma to thereby activate Factor X to Factor Xa, with quantitation of enzymatic activity by spectrophotometric measurement of cleaved substrate. (Coatest VIII:C/4, Chromogenix, Molndal, Sweden).
FIGS. 4, 5 and 6 show the purification chromatograms for binding of the rhFVIII to SEQ IDs 1, 2 and 3, respectively. In each figure, the bottom HPLC trace is the buffer blank injection; the three other HPLC traces are subsequent injections of the KG2DEAE sample. For each chromatogram, flow-through occurs from t=0-22 minutes; salt wash at t=26-34 minutes; elution at t=44-54 minutes. Each fraction (flow-through, salt wash and elution) was collected and assayed for Factor VIII activity by the above described Coatest assay.

T1 sequence (P00451 20-2351): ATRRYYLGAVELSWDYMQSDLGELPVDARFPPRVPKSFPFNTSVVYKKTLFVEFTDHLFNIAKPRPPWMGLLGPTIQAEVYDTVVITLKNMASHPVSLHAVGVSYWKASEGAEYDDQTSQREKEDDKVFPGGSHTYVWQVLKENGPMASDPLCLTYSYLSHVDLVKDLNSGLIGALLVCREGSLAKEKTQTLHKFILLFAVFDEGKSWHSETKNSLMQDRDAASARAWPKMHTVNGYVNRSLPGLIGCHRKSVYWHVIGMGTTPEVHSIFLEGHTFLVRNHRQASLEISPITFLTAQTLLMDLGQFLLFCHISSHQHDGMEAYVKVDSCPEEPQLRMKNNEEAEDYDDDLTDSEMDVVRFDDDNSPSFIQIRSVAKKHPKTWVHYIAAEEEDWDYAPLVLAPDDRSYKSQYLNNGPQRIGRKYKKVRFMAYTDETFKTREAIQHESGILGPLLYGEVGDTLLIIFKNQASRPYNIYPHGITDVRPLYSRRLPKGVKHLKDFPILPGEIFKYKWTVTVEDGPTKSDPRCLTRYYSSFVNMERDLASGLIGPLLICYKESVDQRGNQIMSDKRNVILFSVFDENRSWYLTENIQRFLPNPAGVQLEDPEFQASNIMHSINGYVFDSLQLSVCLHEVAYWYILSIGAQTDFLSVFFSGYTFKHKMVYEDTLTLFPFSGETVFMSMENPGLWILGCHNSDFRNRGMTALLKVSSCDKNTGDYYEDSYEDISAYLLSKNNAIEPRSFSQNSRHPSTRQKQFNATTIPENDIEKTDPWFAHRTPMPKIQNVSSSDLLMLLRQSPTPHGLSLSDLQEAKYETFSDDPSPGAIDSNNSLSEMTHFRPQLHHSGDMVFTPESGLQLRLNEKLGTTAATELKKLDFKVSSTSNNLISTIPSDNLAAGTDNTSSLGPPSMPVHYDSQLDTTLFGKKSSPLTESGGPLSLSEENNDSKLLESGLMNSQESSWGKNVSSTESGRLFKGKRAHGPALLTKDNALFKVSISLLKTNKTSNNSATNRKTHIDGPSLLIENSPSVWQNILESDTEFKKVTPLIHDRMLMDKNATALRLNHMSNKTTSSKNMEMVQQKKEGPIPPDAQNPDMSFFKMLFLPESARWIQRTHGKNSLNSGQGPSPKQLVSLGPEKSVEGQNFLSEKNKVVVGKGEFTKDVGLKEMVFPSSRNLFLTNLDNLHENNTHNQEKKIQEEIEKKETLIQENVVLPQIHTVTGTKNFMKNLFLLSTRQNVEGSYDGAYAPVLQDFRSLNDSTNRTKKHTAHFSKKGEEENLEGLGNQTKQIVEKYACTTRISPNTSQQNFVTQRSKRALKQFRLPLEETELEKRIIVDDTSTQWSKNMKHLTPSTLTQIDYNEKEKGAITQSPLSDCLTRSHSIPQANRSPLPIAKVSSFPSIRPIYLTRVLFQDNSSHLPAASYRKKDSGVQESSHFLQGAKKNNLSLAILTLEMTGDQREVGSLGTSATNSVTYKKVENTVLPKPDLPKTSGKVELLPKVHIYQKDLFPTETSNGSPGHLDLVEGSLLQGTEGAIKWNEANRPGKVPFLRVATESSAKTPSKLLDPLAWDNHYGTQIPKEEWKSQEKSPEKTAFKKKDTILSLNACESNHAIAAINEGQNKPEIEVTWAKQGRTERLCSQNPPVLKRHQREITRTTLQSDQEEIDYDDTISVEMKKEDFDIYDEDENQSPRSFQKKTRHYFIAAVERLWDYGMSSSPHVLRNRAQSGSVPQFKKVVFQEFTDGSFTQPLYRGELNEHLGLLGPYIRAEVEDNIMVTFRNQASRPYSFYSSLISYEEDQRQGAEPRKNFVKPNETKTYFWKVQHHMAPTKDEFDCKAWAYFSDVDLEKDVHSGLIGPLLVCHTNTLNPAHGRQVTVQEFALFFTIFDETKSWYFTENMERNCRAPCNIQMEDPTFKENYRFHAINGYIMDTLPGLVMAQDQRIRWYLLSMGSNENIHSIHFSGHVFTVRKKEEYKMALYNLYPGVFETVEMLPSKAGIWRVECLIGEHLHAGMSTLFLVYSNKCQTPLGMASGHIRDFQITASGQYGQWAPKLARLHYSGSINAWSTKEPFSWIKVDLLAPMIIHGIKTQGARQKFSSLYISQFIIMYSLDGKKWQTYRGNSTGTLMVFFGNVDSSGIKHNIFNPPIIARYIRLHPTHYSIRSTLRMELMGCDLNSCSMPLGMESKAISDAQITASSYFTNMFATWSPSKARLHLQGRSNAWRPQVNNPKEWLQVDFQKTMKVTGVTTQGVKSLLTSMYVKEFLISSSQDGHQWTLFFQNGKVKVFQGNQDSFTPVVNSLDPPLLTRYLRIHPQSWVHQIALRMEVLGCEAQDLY

| Elute Total μg (human Factor VIII [1]) [µg] | Flow-Through Total μg (human Factor VIII [1]) [µg] | Salt Wash Total μg (human Factor VIII [1]) [µg] | Elute % Recovery (human Factor VIII [2]; inj 2) [%] | Purification (human Factor VIII [2]; inj 2) | Elute Total IU (human Factor VIII [2]; inj 2) [IU] | Flow-Through Total IU (human Factor VIII [2]; inj 2) [IU] | Salt Wash Total IU (human Factor VIII [2]; inj 2) [IU] | Elute % Recovery (human Factor VIII [2]; inj 3) [%] | Purification (human Factor VIII [2]; inj 3) | Elute Total IU (human Factor VIII [2]; inj 3) [IU] | Flow-Through Total IU (human Factor VIII [2]; inj 3) [IU] | Salt Wash Total IU (human Factor VIII [2]; inj 3) [IU] | Elute % Recovery (human Factor VIII [2]; inj 4) [%] | Purification (human Factor VIII [2]; inj 4) | Elute Total IU (human Factor VIII [2]; inj 4) [IU] | Flow-Through Total IU (human Factor VIII [2]; inj 4) [IU] | Salt Wash Total IU (human Factor VIII [2]; inj 4) [IU] | Substance |
| --- | --- | --- | --- | --- | --- | --- | --- | --- | --- | --- | --- | --- | --- | --- | --- | --- | --- | --- |
| 10.31 | 0.00 | 0.85 | 46 | 1.00 | 62 | 2 | 3 | 52 | 1.53 | 71 | 1 | 3 | 55 | 1.47 | 75 | 1 | 3 | His-Gln-Tyr-Gly-Tyr-His (HQYGYH; not fully specified; printed as His-Gln-Tyr-Gly-Tyr-His) |
| 7.26 | 0.00 | 0.74 | 31 | 1.22 | 42 | 1 | 4 | 38 | 1.54 | 52 | 1 | 7 | 33 | 1.48 | 45 | 1 | 9 | His-Ile-Gln-His-Tyr-His (HIQHYH; not fully specified; printed as His-Ile-Gln-His-Tyr-His) |
| 5.31 | 0.03 | 0.14 | 26 | 1.15 | 35 | 5 | 2 | 41 | 1.75 | 56 | 2 | 2 | 40 | 1.64 | 54 | 6 | 5 | Trp-His-Tyr-Tyr-His-Gly (WHYYHG; not fully specified; printed as Trp-His-Tyr-Tyr-His-Gly) |
